Kd data for 1 protein are collected here from patent publication US20190092827A1 (University of Texas, published 2019).

The term Kd denotes the equilibrium constant for the complex coming apart.

The data set deals with the molecule itself. Kind of data set: solution NMR spectroscopy, monomer-dimer equilibrium (homodimerisation).

B1: WT MIP-2 (chemokine CXCL2, also known as MIP-2 in mice) (ligand, mouse, UniProt P10889 28-100, looked up)
chain: AVVASELRCQCLKTLPRVDFKNIQSLSVTPPGPHCAQTEVIATLKGGQKVCLDPEAPLVQKIIQKILNKGKAN
notes: also called native MIP-2; wild-type (WT) chemokine
On to B1, for which the Kd stood at 10 µM.
